A short description of the series: yeast display, Sf9 membrane polyspecificity reagent, FACS + sequencing; frameworks hold sequencing errors. The gist of the method:
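Sorting gates, low and high (top ~1%), were placed on anti-HA fluorescence to track expression and on streptavidin fluorescence to track reagent binding. A clone's polyreactivity label is taken from the gate it came out of. The reagent was 10% biotinylated, detergent-solubilized Sf9 membrane, applied for 1 hour at 4 °C to galactose-induced yeast display cells.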
On to “QVQLVESGGGLVQAGGSLRLSCAASGSIISWYVMGWYRQAPGKERELVAAITWGGGSRYYADSVKGRFTISRDNAKNTVYLQMNSLKPEDTAVYYCEFDYWGQGTQVSVSS”, for which the “polyreactivity (PSR sort gate)” value is reported as “low polyreactivity”. Regarding “QVQLVESGGGLVQAGGSLRLSCAASGYTLFRNAMGSYRQAPGKERELGAAISRSGARTYYADSVKGRFTISRDNAKNTVYLQMNSLKPEDTAVYYCAAVIKWTKDDYWGQGTQVTVSS”, the “polyreactivity (PSR sort gate)” value is on record as “high polyreactivity”. In the case of “QVQLVESGGGLVQAGGSLRLSCAASGSTFYDNAMGWYRQAPGKERELVASIRSGGSTKYADSVKGRFTISRDNAKNTVYLQMNSLKPEDTAVYYCATAFIVPFPGSDYWGQGTQVTVSS”, the “polyreactivity (PSR sort gate)” value is reported as “low polyreactivity”. In the case of “QVQLVESGGGLVQAGGSLRLSCAASGSTFYAYAMGWYRQAPGKERELVAAITSRGGSTYYADSVKGRFTISRDNAKYTVYLELISLKPEDTAVYYCDARTCWWSRYYGSWGQGTQVTVSS”, the “polyreactivity (PSR sort gate)” value is given as “high polyreactivity”.

With “HLQLEESGVGLVQAGGSLRLSCAASGSTFTFNAMGWYRQAPAKSRELVAAIRWNGESTYYADSVKGRFSISRDNAKNTVYIQMNSLNPEDTAVYYCAATRLLSKSGDRYYYWGQGTQVTVSS”, the “polyreactivity (PSR sort gate)” value was “low polyreactivity”. With “QVQLEESGGGLVQAGGSLRLSCAASGSIFGYNHMGWYRQAPGKERELVATITWGGGRTRYADSVKGRFTISRVNAKNTVYLQMNSLKPEDTAVYYCAADKRSYSYVRPPRNHEDYWGQGTQVTVSS”, the “polyreactivity (PSR sort gate)” value was “low polyreactivity”. Regarding “QVQLVESGGGLVQAGGSLRLSCAASGSTFIYYAMGWYRQAPGKERELVAAISGSGASTYYADSVKGRFTISRDNAKNTVYLQMNSLKPEDTAVYYCHFYRWRGYDYWGQGTQVTVSS”, the “polyreactivity (PSR sort gate)” value is “high polyreactivity”. “QVQLVESGGGLVQAGGSLRLSCAASGSIFASYVMGWSRQAPGKERELVAAISYSDGRTYYADSVKGRFTISRDNAKNTVYLQMNSLKPEDTAVYYCAADRHARLVIGYRRLRYEYWGQGTQVTVSS”: the “polyreactivity (PSR sort gate)” value was “low polyreactivity”.

Take “QVQLVESGGGLVQAGGSLRLSCAASGRIFVPYAMGWYRQAPGKERELVAGISWSGGSTYYADSVKGRFTISRDNAKNTVYLQMNNLKPEDTPVYYCAAAKRRRPFDYWGQGTQVTVSS”: the “polyreactivity (PSR sort gate)” value is recorded as “high polyreactivity”. “QVQLVESGGGLVQAGGSLRLTCAASGSILYTYAMGWYRQAPGKERELVAAISRGGGSTYYADSVKGRFTISRDNAKNTVYLQMNSLKPEDTAVYYCAARKLTRGTGRDDEYWGQGTQVTVSS”: the “polyreactivity (PSR sort gate)” value is on record as “high polyreactivity”. Regarding “QVQLVESGGGLVQAGGSLRLSCAASGRIFAENAMGWYRQAPGKERELVAAITDGGGSTYYADSVKGRFTISRDNAKNTVYLQMNSLKPEDTAVYYCNAYRYHLGVDFDYWGQGTQVTVSS”, the “polyreactivity (PSR sort gate)” value is “low polyreactivity”. As for “QVQLVESGGGLVQAGGSLRLSCAASGYRFERNAMGWYIQAPGKERELVAAITDDGDDTYYADSVKGRFTISRDNAKNTVYLQINSLKPEDYAVYYWAKDLYYGDYYYWGQGTQVTVSS”, the entry is “low polyreactivity”. As for “QVQLVESGGGLVQAGGSLRLSCAASGSTFGRYAMGWYRQAPGKERELVAAISARGGSTYYADSVKGRFTISRDNAKNTVYLQMNSLKPEDTAVYYCNVDYLLHGGRFDYWGQGTQVTVSS”, the “polyreactivity (PSR sort gate)” value is listed as “high polyreactivity”. In the case of “QVQLVESGGGLVQAGGSLRLSCAASGSTFYFYAMGLFRQAPGKERELVAAITSSGGSTYYAESVKGRFTISRDNAKNTVYLQMISQKPEDTAVYYCATTYPQRYNGYDYWGQGTQVTVSS”, the “polyreactivity (PSR sort gate)” value is listed as “low polyreactivity”.

Turning to “QVQLVESGGGLVQAGGSLRLTCAASGSIFYRNAMGWYRQAPGKERELVAAISTDGSTNYADSVKGRFTISRDNAKNTVYLHMNSLIPEDTAVSYCAAPWTQILDYWGQGTQVTVSS”, the “polyreactivity (PSR sort gate)” value is on record as “low polyreactivity”.

Take “QVQLVESGGGLVQAGGSLRLSCAASGFTFGPYAMGWYRQAPGKERELVAAIRGSGSSTYYADSVKGRFTISRDNAKNTVYLQMNSLKPEDTAVYYCAAKRRYGTDGYWGQGTQVTVSS”: the “polyreactivity (PSR sort gate)” value is listed as “high polyreactivity”. Next, “QVQLVESGGGLVQAGGSLRLSCAASGTFYPNAMGWYRQAPGKERELVAAISEDGGGTYYADSVKGRFTISRDNAKNTVYLQMNSLKPEDTAVYYCAAEYYDYWYTYDYWGQGTQVTVSS”: “high polyreactivity”; “QVHLVESGGGLVKAGGSLRLSCGASGSTFERYAMGWYRQAPGKERELVAAINWSGGGTYYADSVKGRFTSSRDNAKNTVYLQMNSLNPEDTAVYYCAGDSGTVVFSLWWYEYYYWGQATQVTVSS”: “low polyreactivity”; “QVQLVESGGGLVQAGGSLRLSCAASGFTFPVYTMGWYSQAPGKERELVAAISTAGAGTYYADSVKGRFTISRDNAKNTVYLQMNSLKPEDTAVYYCAAYKRGRPEMDYWGQGTQVTVSS”: “high polyreactivity”. As for “QVQLVESGGGLVQAGGSLRLSCAASGSTFYDYAMGWYRQAPGKERELVASISISGGSTYADSVKGRFTISRDNAKNTVYLQMNSLKPEDTAVYYCAADSWGIGYGPDYEYWGQGTQVTVSS”, the “polyreactivity (PSR sort gate)” value is “low polyreactivity”. Consider “QVQLVESGGGLVQAGGSLRLSCAPTGFIFFTYAMGWYRQAPGKERELVAAISQSGASTYYADSVKGRFTISRDNAKKTVYLQMNSLKPEDSAVDYCAATYSFRYWIQRYNYWGQGTQVTVSS”, for which the “polyreactivity (PSR sort gate)” value is “low polyreactivity”.

In the case of “QVQHVESGGGLVQAAGSLRLSCAASGTTLSSYAMGWSRQAPGKVRELVAAINSSGGRTYYADSVKGRFTISRDNAKNTVYLQMNSLKPDDTAVYYCAATRGRYREYEDYWGQGTQVTVSS”, the “polyreactivity (PSR sort gate)” value is “high polyreactivity”. As for “QVQLVESGGGLVQAGGSLRLSCAASGIILSGYAMGWYRQAPGKDRELVAAIRRGGSTYYADSVKGRFTISRDNAKNTVYLQMNSLKPEDTAVYYCNAYSSRKVKWWDDYWGQGTQVTVSS”, the “polyreactivity (PSR sort gate)” value is “high polyreactivity”. As for “QVQLVESGGGLVQAGGSLRLICAASGRTFRDYAMGWYRQAPGKEWELVAVISRRGSSTYYADSVKGRFTISRDNAKNTVYLQMNSLKPEDTAVYYCARVPTTWRYAYGYWGQGTQVTVSS”, the “polyreactivity (PSR sort gate)” value is reported as “high polyreactivity”. For the sequence “HVQLEESGRGLVQAGGSLRLSCAASGRTFTSNAIGWYRQAPGKERELVAVITSGGSTNYADSVKGRFTISRDNAMNTVYLQMNSLKPEDTAVYYCNARSGRGQAYGYWGQGTQVTVSS”, the “polyreactivity (PSR sort gate)” value is on record as “high polyreactivity”. Consider “QVQLVESGGGLVQAGGSLRLTCAASGGTFQPNAMGGYRQAPGKERELVAAISWSDGSTYYADSVKGRFTISRDNAKNTVYLQMKSLKPVDTAVYYCAADFTYYDSPYRDYNYESWGQGTQVTVSS”, for which the “polyreactivity (PSR sort gate)” value is given as “low polyreactivity”.

As to “QVQLVESGGGLVQAGGSLRLSCAASGSIFSRYAMGWYRQAPGKERELVAAITSSGTSTYYADSVKGRFTISRDNAKNTVYLQMNSLKPEDTAVYYCAAAFRQRTSRFDYWGQGSQVTVSS”, the “polyreactivity (PSR sort gate)” value is reported as “high polyreactivity”. Take “QVQHVESGGGLVQAGGSLRLSCAASGLIFSKNVMGWYRQARGKEREFVAAISQRGGSTYYADSVKGRFTISRDNAKNTVYVQMNSLKPEDTAVYYCAADNTVSHEDFWGQGTQVTVSS”: the “polyreactivity (PSR sort gate)” value is “high polyreactivity”.

As to “QVQLVESGGGLVQAGGSLRLSCAASGSTFYNYVMGWYRQAPGKERELVAAINWSGCRTYYADSVKGRFTISRDNAKNTVYLQMNSLKPEDTAVYYCAAGYTLPWYKGFDYWGQGTQVTVSS”, the “polyreactivity (PSR sort gate)” value is “high polyreactivity”. For the sequence “QVQLVESGGGLVQAGCSLRLSCAASGRIIDGYAMGWYRQAPGKEREFVAAITWIGGRTYYADSVKGRFTISRDNAKITVYLHMNSLKPEDTAVYYCAVVQSRYRGRFDYWGQGTQVTVTS”, the “polyreactivity (PSR sort gate)” value is given as “high polyreactivity”. Regarding “QVQLVESGGGLVQAGGSLRLSCAASGSSKLRLWDGIDRRLGKKGSWLPLFVLVVLRNYADSVKGRFTISRDNAKNTVYLQMNSLKPEDTAVYYCAATPIGSGGWGDYWGQGTQVTVSS”, the “polyreactivity (PSR sort gate)” value was “low polyreactivity”.

In the case of “QVQLVESVGGLVQAGGSLRLSCAASGIIFVGYAMGWYRPAPGKERELVSAIDLSGDSTYYADSVKGRFTISRDNAKNTVYLQMNSLKPEDTAVYYCAAGYWHRVNGDYDYWGQGTQVTVSS”, the “polyreactivity (PSR sort gate)” value is on record as “high polyreactivity”. For the sequence “QVQLVESGGGLVQAGGSLRLSCAASGGTFRVYVMGWYRQAPGKERELVAAISRGGGSTYYADSVKGRFTISRDNAKNTVYLQMNSLKPEDTAVYYCAARVWRYPWRASEYDYWGQGTQVTVSS”, the “polyreactivity (PSR sort gate)” value is given as “high polyreactivity”. With “QVQLVESGGGLVQAGGSLRLSCAASGSTFSYYAMGWYRQAPGKEREFVASISWRGGSTYYADSVKGRFTISRDNAKNTVYLQMNRLKPEDTAVYYCAASSRSRWSGYRYDYWGQGTQVTVSS”, the “polyreactivity (PSR sort gate)” value is listed as “high polyreactivity”.

With “QFQLVESGGGLVQAGGILRLSCAASGFTFRVNAMGWYRQAPGKERELVASITVSDGRTYYADSVKGRFTISRDNAKNTVYLQMNSLKPEDCAVYYCAADYKGAFTTDWSSEYEYWGQGTQVTVSS”, the “polyreactivity (PSR sort gate)” value is given as “low polyreactivity”. “QVQLVESGGGLVQAGGSLRLSCAASGSIFKYYTMGWYRQAPGKERELVAAISWRGGSTYYADSVKGRFTISRDNAKNTVYLQMNSLKPEDTAVYYCAAKSYYNYYYWGQGTQVTVSS”: the “polyreactivity (PSR sort gate)” value is on record as “high polyreactivity”. Next, “QVQLVESGGGLVQAGGSLRLSCAASGSILGYYVMGWYRQAPGKERELVAVISSDGSTYYADSVKGRFTISRDNAKNTVYLQMNSLKPEDTAVYYCNADYYVEYDYWGQGTQVTVSS”: “low polyreactivity”; “QVQLQESGGGLVQAGGSLRLSCAASGYISWYSEMGWYRQAPGKEREFVATITCGTTTNYAVSVKGRFTISRDNAKNTVYLQKNSLKPEDTAVYYCAVHDARHYEFDYWGQGTQVTVSS”: “high polyreactivity”. Consider “QVQLVESGGGLVQAGGSLRLSCAASGSTIYVNAMGWYIQAPGKERELVAAIRSSAGNTTYADSVKGRFTISRDNAKNTVYLQMNSLKPEVTAVYYCAADSRPYLRDYWGQGTQVTVSS”, for which the “polyreactivity (PSR sort gate)” value was “low polyreactivity”. As to “QVQLVESGGGLVQAGGSLRLSSAASGRTFSGYAMGWYRQAPGKERELVASISGSGSSTYYADSVKGRFTISRDNAMNTVYLQMNSLKPEDTAVYYCAKRSFYYRIQTGYNYWGQGTQVTVSS”, the “polyreactivity (PSR sort gate)” value was “high polyreactivity”. As to “QVQLVESGGGLVQAGGSLRLSCAASGIIFGRYAMGWYRQATGTVRELVAASTRSGGRTYYADTVKGRFTISRDYAKNTVFVQMNSLKPEDTAVYYCSADASGHSYDYWGQGTQVTVSS”, the “polyreactivity (PSR sort gate)” value was “high polyreactivity”.

The values are drawn from the nanobody polyreactivity screen of Harvey et al. (2022).
